Assays:
[1] = Phase transition temperature by optical density (UV-Vis, 350 nm) versus temperature; type: physicochemical; conditions: 25 μM; Table 5
Experimental: The temperature with the maximum positive slope was defined as the phase transition temperature for each condition. (FIG. 2B) The concentration-temperature phase diagram was determined for both ELPs, and fit to the following equation: Tt=b−m Log10[CELP].
Both ELPs at different concentrations (5 μM to 100 μM) were subject to a precisely controlled temperature increase from 25 to 75° C. at a rate of 1° C./min. The Tt of ELPs is defined as the temperature at which the first derivative of the optical density with respect to the temperature reaches a maximum.

[2] = ATRA encapsulation in 4PA, two phase method, HPLC; type: physicochemical; conditions: theoretical maximum 4
From the text: FIG. 21: SDS PAGE was used to resolve the purified 4PA fusion protein. To formulate ATRA-loaded 4PA, a two phase encapsulation method was adopted. After removing undissolved drug, HPLC was used to quantify 4PA and ATRA concentrations. Encapsulation ratio, defined as CATRA/C4PA was 2.7, theoretical maximum being 4.

male NOD mice = assay: Lymphocytic infiltration of the lacrimal gland in male NOD mice (Sjögren's syndrome model); type: in vivo; conditions: SC 1.0 mg Rapa/kg every other day for 2 weeks
Experimental: FIGS. 23A-23C: FAF-Rapa reduces lymphocytic infiltration in the LG of male NOD mice, FIG. 23A: identity, purity and fluorescence of FAF, FAF-Rapa and rhodamine-labeled FAF-Rapa (Rho-FAF-Rapa) were analyzed by Comassie blue staining and fluorescence imaging of SDS-PAGE. FIG. 23B: One LG from each mouse was collected at the conclusion of the study. Sections from 25th, 50th and 75th percentile sections from each LG were quantified by a blinded observer to determine the average percentage area of infiltrate per gland. Glands from 4 treatment groups (n=15) were compared. Inflamed LG show areas of purple nuclear staining, which indicate foci of infiltrating lymphocytes (outlined in blue). Severe lymphocytic infiltration was reduced by FAF-Rapa (middle panel). Scale bar represents 200 μm. FIG. 23C: The percent area of infiltration was calculated using ImageJ (mean±SD). A Kruskal-Wallis non-parametric test was used to compare groups.
SS is a chronic autoimmune disease that affects about 4 million people in the US. Lymphocytic infiltration and inflammation in the exocrine glands, mainly lacrimal gland (LG) and salivary gland causes severe forms of dry eyes and dry mouth. […] Following this, the LG from all mice were sectioned, stained and lymphocytic infiltration was quantified.

Compound | Transition temperature at 25 μM [1] | Encapsulation ratio, CATRA/C4PA [2] | suppression of lymphocytic infiltration compared to vehicle (male NOD mice)
4PA: 4 Pin1 domains linked by ELP A24, SEQ ID NO: 15 | 52.8 °C | 2.7 | –
CO[C@H]1C[C@@H]2CC[C@@H](C)[C@@](O)(O2)C(=O)C(=O)N2CCCC[C@H]2C(=O)O[C@H]([C@H](C)C[C@@H]2CC[C@@H](O)[C@H](OC)C2)CC(=O)[C@H](C)/C=C(\C)[C@@H](O)[C@@H](OC)C(=O)[C@H](C)C[C@H](C)/C=C/C=C/C=C/1C [Rapa, Rapamycin] | – | – | 2.7 fold
